From patent publication EP3470428A1 (Numab Innovation AG, dated 2019)

Experiments:
[1] = target: T1, human CD137 expressed on cells (human, UniProt Q07011 24-255); experiment: cell-based or functional assay
biotinylated human PD-L1 [2] = target: T2, biotinylated human PD-L1 (human, UniProt Q9NZQ7 19-238, limits assumed, biotinylated); experiment: competition ELISA; coated human PD-1 as competitor; biotinylated human PD-L1 pre-incubated with inhibitor
T2 construct: also called biotinylated PD-L1

[3] = target: T1, human CD137 expressed on cells; experiment: cell-based or functional assay; remark: listed apart in the source
biotinylated human PD-L1 [4] = target: T2, biotinylated human PD-L1; experiment: competition ELISA; coated human B7.1 as competitor; biotinylated PD-L1 pre-incubated with inhibitor
[5] = target: T1, human CD137 expressed on cells; experiment: cell-based or functional assay; remark: listed apart in the source
[6] = target: human PD-L1 expressed on cells (human, UniProt Q9NZQ7 19-290); experiment: cell-based or functional assay
biotinylated human PD-L1 [7] = target: T2, biotinylated human PD-L1; experiment: PD-L1/PD-1 competition ELISA with human serum albumin
human serum albumin = target: T3, human serum albumin (human, UniProt P02768 25-609); experiment: SPR (Biacore T200); SA amine-coupled; pH 5.5
T3 construct: Amine-coupled to a CM5 chip; assay at pH 5.5; also called HSA; human SA

[8] = target: T1, human CD137 expressed on cells; experiment: cell-based or functional assay; remark: listed apart in the source

B1: PRO1057: 38_02_A04 sc01 scDb-i/33-03-G02 sc01 scDb-o/mxr HSA (23-13-A01-sc03, sk17sh4) (other)
chain: DIQMTQSPSSLSASVGDRVTITCQASQSINDYLAWYQQKPGKAPKLLIYKASTLASGVPSRFSGSGSGTDFTLTISSLQPEDFATYYCQQGYIITDIDNVFGTGTKVTVLGGGGGSQVQLQESGPGLVKPSETLSLTCKVSGFSFSNSYWICWIRQPPGKGLEWIGCTFVGSSDSTYYANWAKGRVTISVDSSKNQFSLKLSSVTAADTAVYYCARHPSDAVYGYANNLWGQGTLVTVSSGGGGSGGGGSGGGGSGGGGSIQMTQSPSSLSASVGDRVTITCQASQSINNVLAWYQQKPGKAPKLLIYRASTLASGVPSRFSGSGSGTDFTLTISSLQPEDFATYYCQSSYGNYGDFGTGTKVTVLGGGGGSQVQLQESGPGLVKPSETLSLTCKVSGFSFSSGYDMCWIRQPPGKGLEWIGCVVAGSVDITYYASWAKGRVTISVDSSKNQFSLKLSSVTAADTAVYYCARKDAYSDAFNLWGQGTLVTVSSGGGGSGGGGSVVMTQSPSSLSASVGDRVTITCQASQIISSRSAWYQQKPGQPPKLLIYQASKLASGVPSRFSGSGSGTDFTLTISSLQPEDFATYYCQCTYIDSNFGAFGGGTKLTVLGGGGGSGGGGSGGGGSGGGGSEVQLVESGGGLVQPGGSLRLSCAASGFSFSSSYWICWVRQAPGKGLEWVGCVFTGDGTTYYASWAKGRFTISRDNSKNTVYLQMNSLRAEDTATYFCARPVSVYYYGMDLWGQGTLVTVSS
notes: Trispecific scTriabody (scDb-scFv)
- EC50 in ng/ml, CD137 activation, NFkB-luciferase Jurkat reporter assay, HCC827 with IFNy stimulation, 24h, +HSA [1]: 115 ng/mL
- EC50 in ng/ml, CD137 activation, NFkB-luciferase Jurkat reporter assay, HCC827 without IFNy stimulation, 24h, +HSA [1]: 76.6 ng/mL
- IC50 (biotinylated human PD-L1 [2]): 0.00861 µg/mL
- EC50 in ng/ml, CD137 activation, NFkB-luciferase Jurkat reporter assay, PD-L1 expressing CHO cells, 6h, + HSA [3]: 112 ng/mL
- IC50 (biotinylated human PD-L1 [4]): 0.0163 µg/mL
- max. activation (%), NF-kB reporter gene, CHO-PD-L1; HSA: yes, 24h [5]: 663%
- IC50 (ng/ml), neutralization of PD-L1/PD-1 interaction, NFAT-luciferase reporter gene assay, with HSA [6]: 665 ng/mL
- fold change of IC50 in presence of human serum albumin (biotinylated human PD-L1 [7]): ~2 fold
- binding result (human serum albumin): binds
- EC50 in ng/ml, CD137 activation, NFkB-luciferase Jurkat reporter assay, PD-L1 expressing CHO cells, 24h, + HSA [8]: 792 ng/mL
